Assay results: patent publication US20080201790A1, “Method and product for regulating cell responsiveness to external signals” (priority 1993, published 2008)

Assays:
p42/44 MAPK = p42/44 MAPK activity in HEK293 cells transfected with MEKK 2 or 3; format: cell-based; details: transient expression in HEK293 cells
Protocol: MAPK activity following Mono Q FPLC fractionation was measured using the epidermal growth factor receptor […] peptide as a selective p42/44 MAPK substrate. Alternatively, for cells transfected with varying amounts of MEKK plasmids, MAPK activity was assayed after elution from DEAE Sephacel columns. […] Thus, even though the kinase domains are approximately 94% conserved, MEKK 2 and 3 differ in their selectivity for regulation of the JNK and p42/44^MAPK pathways. This was particularly evident for MEKK 3 at low plasmid concentrations where the p42/44^MAPK pathway was preferentially activated.

c-Jun kinase (JNK) = experiment: JNK activity in HEK293 cells transfected with MEKK 2 or 3; format: cell-based; details: for selectivity in activating JNK versus p42/44 MAPK: plasmid DNAs titrated over a range of concentrations; for c-Jun kinase (JNK) activity: transient expression in HEK293 cells
Protocol: JNK activity was measured using GSTc-Jun1-79) coupled to glutathione Sepharose 4B. Cells transfected with MEKK2 or 3 and control transfected cells were lysed in 0.5% Nonidet P-40, 20 mM Tris HCl, pH 7.6, 0.25 M NaCl, 3 mM EDTA, 3 mM EGTA, 1 mM dithiothreitol, 1 mM PMSFm 2 mM sodium vanadate, 20 ug/ml aprotinin, and 5 ug/ml leupeptin. Nuclei were removed by centrifugation at 15,000×g for 10 min and the supernatants (25 ug of protein) were mixed with 10 ul of a slurry of GST c-Jun(1-79) Sepharos (3-5 ug of GST cJun(1-79). The mixture was rotated at 4° C. for 1 h, washed twice in lysis buffer and once in kinase buffer (20 mM Hepes, pH 7.5, 10 mM MgCl2, 20 mM β-glycerophosphate, 10 mM p-nitrophenyl phosphate, 1 mM dithiothreitol, 50 uM sodium vanadate). Beads were suspended in 40 ul of kinase assay buffer containing 10 uCi of [γ32P]ATP and incubated at 30° C. for 20 min. Reaction mixtures were added to Laemmli sample buffer, boiled, and phosphorylated proteins were resolved on SDS-10% polyacrylamide gels. The JNK activity also eluted early from a Mono Q column using a linear sodium chloride elution gradient. […] When JNK activity was assayed following fractionation by Mono Q ion exchange chromatography, 50 ul of each fraction was incubated with the GST cJun(1-79) beads.

JNKK = target: T1, JNKK (Homo sapiens, UniProt P45985); experiment: In vitro kinase assay of immunoprecipitated HA-tagged MEKK with recombinant JNKK; format: biochemical; details: 12CA5 immunoprecipitates
T1 sequence (P45985 1-399): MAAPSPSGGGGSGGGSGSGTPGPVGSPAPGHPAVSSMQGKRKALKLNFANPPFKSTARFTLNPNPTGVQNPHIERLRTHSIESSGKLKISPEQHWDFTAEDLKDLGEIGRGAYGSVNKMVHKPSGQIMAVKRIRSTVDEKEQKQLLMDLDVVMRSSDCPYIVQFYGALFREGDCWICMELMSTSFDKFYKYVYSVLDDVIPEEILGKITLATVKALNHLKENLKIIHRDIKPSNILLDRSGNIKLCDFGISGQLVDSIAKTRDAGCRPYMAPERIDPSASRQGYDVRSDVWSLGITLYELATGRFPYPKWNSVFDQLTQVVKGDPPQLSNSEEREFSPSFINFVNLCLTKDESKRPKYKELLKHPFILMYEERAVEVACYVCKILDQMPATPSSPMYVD
Protocol: (§1) MEKK 2 Phosphorylates Both MEK 1 and JNK Kinase in Vitro. HEK293 cells expressing MEKK 2 and 3 were lysed in !% Triton x-100, 0.5% Nonidet P-40, 20 mM Tris HCL, pH 7.5, 150 mM NaCl, 20 mM NaF, 0.2 mM sodium vanadate, 1 mM EDTA, […], 1 mM EGTA, 5 mM PMSF. Nuclei were removed by centrifugation at 15,000×g for 5 min. HA epitope-tagged MEKK2 and 3 were immunoprecipitated with the 12CA5 antibody recognizing the HA epitope-tag. The immunoprecipitates were washed twice in lysis buffer, twice in PAN (10 mM Pipes, pH 7.0, 100 mM NaCl, 20 ug/ml aprotinin), suspended in 20 mM Pipes, 10 mM MnCl2, 20 ug/ml aprotinin, and used in an in vitro kinase assay with 20-50 ng of recombinant MEK1 or JNKK as substrates and 20 uCi of [γ^32P]ATP. Reactions were terminated by the addition of Laemmli sample buffer, boiled, and proteins were resolved by SDS-10% PAGE.
Incubations were for 30 min at 30° C. in the presence of 50 uM ATP. GST-cJun (1-79) Sepharose beads were then added, and the mixture was rotated at 4° C. for 30 min. The beads were washed, suspended in 40 ul of c-Jun kinase assay buffer containing 20 uCi of [γ32P]ATP, and incubated for 15 min at 30° C. Reaction mixtures were added to Laemmli sample buffer, boiled, and phosphorylated proteins were resolved on SDS 10% PAGE.

c-Jun kinase = c-Jun kinase activation in transfected COS cells; format: cell-based; details: expression in COS cells, FIG. 22
Excerpt: COS cells were transfected with pCMV5 expression plasmid encoding no cDNA insert (control), full length MEKK4 or the truncated MEKK4 encoding only the catalytic kinase domain.

MEK 1 = target: T2, MEK 1 (Mus musculus, UniProt P31938); experiment: In vitro kinase assay of immunoprecipitated HA-tagged MEKK with recombinant MEK1; format: biochemical; details: 12CA5 immunoprecipitates
T2 construct: polyhistidine (N); made in house; host or cells: pRSETA vector
Protocol: as §1

p38 = p38 kinase activity in HEK293 cells transfected with MEKK 2 or 3; format: cell-based; details: immunoprecipitation and in vitro kinase assay
Protocol: The p38 kinase is activated by hyperosmotic conditions and recognizes the transcription factor ATF 2 as an in vitro substrate. Sorbitol treated (0.4M, 20 min) or control HEK293 cells were lysed in the same buffer as that used for immunoprecipitation of p38 using rabbit antiserum raised against the COOH terminal peptide sequence of p38. Immunoprecipitates were washed once in lysis buffer, once in assay buffer (25 mM Hepes, pH 7.4, 25 mM β-glycerophosphate, 25 mM […], 2 mM dithiothreitol, 0.1 mM sodium vanadate) resuspended, and used in an in vitro kinase assay with a recombinant NH2-terminal fragment of ATF 2 (20-50 ng). For analysis of p38 kinase activity from Mono Q FPLC fractions, 20 ul aliquots were mixed with kinase buffer containing 20-50 ng of recombinant ATF 2 and 10 uCi of [γ32P]PATP. Reactions were quenched in Laemmli sample buffer, boiled, and proteins were resolved using SDS 10% PAGE. […] Mono Q FPLC fractionation of lysates from MEKK 2 or 3 transfected HEK293 cells confirmed that p38 kinase activity was similar to that from control transfected cells. ATF 2 is also a substrate for JNK. Fractions 2-8 from cells transfected with MEKK 2 or 3, that contain immunoreactive JNK, have increased kinase activity toward ATF 2. This is a predicted result based on the ability of both MEKK 2 and 3 to stimulate JNK activity in HEK293 cells. […]

p38 MAPK = experiment: Tyrosine phosphorylation of p38 MAPK in COS cells transfected with MEKK 1 or MEKK 3; format: cell-based; details: forty-eight hours after transfection
Protocol: (§2) COS cells were transfected with the expression plasmid pCVM5 ligated to cDNA clones encoding either MEKK 1 or MEKK 3 protein, or a control pCVM5 plasmid lacking MEKK cDNA inserts. Forty-eight hours after transfection, the COS cells were lysed and the lysate fractionated on a Mono Q FPLC column using conditions described in Example 4. The fractions were analyzed for tyrosine phosphorylation of MAP kinase-like enzymes using the kinase assay described in Example 4.

[1] = system: p42 and p44 forms of MAPK; experiment: Phosphorylation of p42 and p44 MAPK in COS cells transfected with MEKK 1 or MEKK 3; format: cell-based; details: forty-eight hours after transfection
Protocol: as §2

B1: MEKK 2: 619-amino acid MEK kinase protein, SEQ ID No. 6 / 8 (protein)
chain: MGYPYDVPDYASDDQQALNSIMQDLAVLHKPVGQHYLYKKPGKQNLHHQKNRMMFESNLNIEEEKRILQVTRPVKLEDLRSKSKIAFGQSMDLHYTNNELVIPLTTQDDLDKAVELLDRSIHMKSLKILLVVNGSTQATNLEPSPSPEDLNNTPLGAERKKRLSVVGPPNRDRSSPPPGYIPDILHQIARNGSFTSINSEGEFIPESMDQMLDPLSLSSPENSGSGSCPSLDSPLDGESYPKSRMPRAQSYPDNHQEFTDYDNPIFEKFGKGGTYPRRYHVSYHHQEYNDGRKTFPRARRTQGTSFRSPVSFSPTDHSLSTSSGSSVFTPEYDDSRIRRRGSDIDNPTLTVTDISPPSRSPRAPTNWRLGKLLGQGAFGRVYLCYDVDTGRELAVKQVQFNPESPETSKEVNALECEIQLLKNLLHERIVQYYGCLRDPQEKTLSIFMELSPGGSIKDQLKAYGALTENVTRKYTRQILEGVHYLHSNMIVHRDIKGANILRDSTGNIKLGDFGASKRLQTICLSGTGMKSVTGTPYWMSPEVISGEGYGRKADIWSVACTVVEMLTEKPPWAEFEAMAAIFKIATQPTNPKLPPHVSDYTRDFLKRIFVEAKLRPSAEELLRHMFVHYH
p42/44 MAPK activity (p42/44 MAPK): stimulated p42/44^MAPK activity
selectivity in activating JNK versus p42/44 MAPK (c-Jun kinase (JNK)): greater selectivity for stimulation of the JNK pathway
c-Jun kinase (JNK) activity (c-Jun kinase (JNK)): stimulation of c-Jun kinase (JNK) activity
phosphorylation of JNKK in vitro (JNKK): clearly phosphorylates both MEK 1 and JNKK
activation of the c-Jun kinase pathway (c-Jun kinase): also activate the c-Jun kinase pathway
phosphorylation of MEK 1 in vitro (MEK 1): clearly phosphorylates both MEK 1 and JNKK
p38 kinase activity (p38): neither MEKK 2 nor MEKK 3 stimulated p38 kinase activity

B2: MEKK 3: 626-amino acid MEK kinase protein, SEQ ID No. 10 (protein, listed as Mus musculus)
chain: MDEQEALDSIMKDLVALQMSRRTRLSGYETMKNKDTGHPNRQSDVRIKFEHNGERRIIAFSRPVRYEDVEHKVTTVFGQPLDLHYMNNELSILLKNQDDLDKAIDILDRSSSMKSLRILLLSQDRNHTSSSPHSGVSRQVRIKPSQSAGDINTIYQAPEPRSRHLSVSSQNPGRSSPPPGYVPERQQHIARQGSYTSINSEGEFIPETSEQCMLDPLSSAENSLSGSCQSLDRSADSPSFRKSQMSRARSFPDNRKECSDRETQLYDKGVKGGTYPRRYHVSVHHKDYNDGRRTFPRIRRHQGNLFTLVPSSRSLSTNGENMGVAVQYLDPRGRLRSADSENALTVQERNVPTKSPSAPINWRRGKLLGQGAFGRVYLCYDVDTGRELASKQVQFDPDSPETSKEVSALECEIQLLKNLQHERIVQYYGCLRDRAEKILTIFMEYMPGGSVKDQLKAYGALTESVTRKYTRQILEGMSYLHSNMIVHRDIKGANILRDSAGNVKLGDFGASKRLQTICMSGTGIRSVTGTPYWMSPEVISGEGYGRKADVWSLGCTVVEMLTEKPPWAEYEAMAAIFKIATQPTNPQLPSHISEHGRDFLRRIFVEARQRPSAEELLTHHFAQLVY
p42/44 MAPK activity (p42/44 MAPK): stimulated p42/44^MAPK activity
selectivity in activating JNK versus p42/44 MAPK (c-Jun kinase (JNK)): greater selectivity for activating p42/44 MAPK relative to JNK
c-Jun kinase (JNK) activity (c-Jun kinase (JNK)): stimulation of c-Jun kinase (JNK) activity
phosphorylation of JNKK in vitro (JNKK): did not show measurable kinase activity toward MEK 1 or JNKK
activation of the c-Jun kinase pathway (c-Jun kinase): also activate the c-Jun kinase pathway
phosphorylation of p38 MAPK (p38 MAPK): induces tyrosine phosphorylation of p38 MAPK
phosphorylation of p42 and p44 MAPK [1]: induces tyrosine phosphorylation
phosphorylation of MEK 1 in vitro (MEK 1): did not show measurable kinase activity toward MEK 1 or JNKK
p38 kinase activity (p38): neither MEKK 2 nor MEKK 3 stimulated p38 kinase activity
